5 proteins from patent US6617117 can be followed below.

Series [1] addresses T1, GST-ATF2(19-96), P15336.
T1 chain: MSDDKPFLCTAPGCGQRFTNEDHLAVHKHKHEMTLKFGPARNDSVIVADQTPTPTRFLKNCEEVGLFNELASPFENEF

For series [2], the target named is GST-Elk1(307-428) [GST: P08515].
In series [3] the target is GST-MAPKAP-K2(46-400), P49137.
The target in series [4] is GST-MAPKAP-K3, Q16644.
For series [5], the target named is T2, GST-SAP1(267-431), P28324.
T2 chain: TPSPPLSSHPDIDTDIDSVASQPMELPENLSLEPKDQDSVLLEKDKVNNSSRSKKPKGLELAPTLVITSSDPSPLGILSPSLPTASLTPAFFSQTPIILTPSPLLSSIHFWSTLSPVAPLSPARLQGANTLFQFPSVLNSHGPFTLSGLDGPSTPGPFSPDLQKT

For series [6], the target named is GST-SAP2(221-417) [GST: P08515].
Series [7] addresses T3, GST-cJun(1-194), P05412.
T3 chain: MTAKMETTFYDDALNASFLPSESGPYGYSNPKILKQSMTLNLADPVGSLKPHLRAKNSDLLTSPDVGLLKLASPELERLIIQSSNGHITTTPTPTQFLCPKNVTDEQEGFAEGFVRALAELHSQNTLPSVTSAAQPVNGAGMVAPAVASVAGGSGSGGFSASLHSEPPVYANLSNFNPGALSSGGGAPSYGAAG

Series [8] has as its target MAPKAP-K2 (substrate of Table 1, construct not stated), P49137.
For series [9], the target named is GST-MAPKAP-K2(5-400), P49137.
Chain of GST-MAPKAP-K2(5-400), P49137 (P49137 5-400): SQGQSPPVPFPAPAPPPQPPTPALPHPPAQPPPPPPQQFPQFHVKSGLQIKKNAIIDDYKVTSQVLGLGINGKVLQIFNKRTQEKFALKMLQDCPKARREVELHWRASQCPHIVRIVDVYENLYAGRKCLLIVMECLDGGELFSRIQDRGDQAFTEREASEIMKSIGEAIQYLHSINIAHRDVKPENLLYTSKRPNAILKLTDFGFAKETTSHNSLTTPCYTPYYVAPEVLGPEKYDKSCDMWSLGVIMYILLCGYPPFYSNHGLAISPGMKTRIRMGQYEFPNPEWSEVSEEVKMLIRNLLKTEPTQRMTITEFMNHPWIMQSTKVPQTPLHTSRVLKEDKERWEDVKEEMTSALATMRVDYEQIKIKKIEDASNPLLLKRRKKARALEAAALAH
For series [10], the target named is GST-SAPK4(D168A).
The target of series [11] is T4, MalE-Mpk2, the Xenopus homologue of SAPK2a, P47812.
T4 chain: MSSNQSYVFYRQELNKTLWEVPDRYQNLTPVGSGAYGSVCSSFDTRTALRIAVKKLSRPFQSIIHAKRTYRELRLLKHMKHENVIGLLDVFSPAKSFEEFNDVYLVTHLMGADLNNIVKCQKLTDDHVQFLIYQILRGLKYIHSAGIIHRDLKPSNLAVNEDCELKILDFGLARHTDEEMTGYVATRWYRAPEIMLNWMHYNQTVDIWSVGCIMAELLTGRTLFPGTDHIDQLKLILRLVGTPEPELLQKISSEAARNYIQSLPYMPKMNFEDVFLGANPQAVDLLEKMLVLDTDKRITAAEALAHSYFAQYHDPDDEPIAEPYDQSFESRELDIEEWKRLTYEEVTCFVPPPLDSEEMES

The target of series [12] is T5, human GST-SAPK4.
T5 chain: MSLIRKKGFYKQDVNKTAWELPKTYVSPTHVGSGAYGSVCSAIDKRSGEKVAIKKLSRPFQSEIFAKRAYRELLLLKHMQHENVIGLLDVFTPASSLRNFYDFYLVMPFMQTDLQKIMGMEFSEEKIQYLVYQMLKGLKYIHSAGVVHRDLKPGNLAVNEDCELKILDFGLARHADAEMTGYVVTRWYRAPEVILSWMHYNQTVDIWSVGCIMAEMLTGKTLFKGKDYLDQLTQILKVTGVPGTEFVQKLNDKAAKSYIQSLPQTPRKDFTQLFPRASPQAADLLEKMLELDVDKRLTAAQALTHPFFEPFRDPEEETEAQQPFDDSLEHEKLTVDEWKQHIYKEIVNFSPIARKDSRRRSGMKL

The target of series [13] is T6, rat GST-SAPK3, Q63538.
T6 chain: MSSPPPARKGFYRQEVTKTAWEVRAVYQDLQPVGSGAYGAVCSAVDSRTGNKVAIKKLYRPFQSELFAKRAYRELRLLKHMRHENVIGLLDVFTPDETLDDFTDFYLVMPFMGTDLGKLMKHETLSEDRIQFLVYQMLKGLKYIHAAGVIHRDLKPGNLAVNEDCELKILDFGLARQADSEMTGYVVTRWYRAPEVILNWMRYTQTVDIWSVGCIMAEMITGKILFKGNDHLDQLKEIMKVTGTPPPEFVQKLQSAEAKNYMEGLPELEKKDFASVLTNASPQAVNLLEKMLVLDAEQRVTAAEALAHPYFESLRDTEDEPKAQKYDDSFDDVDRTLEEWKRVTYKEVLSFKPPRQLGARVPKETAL

Chain of GST-MAPKAP-K3, Q16644 (Q16644 whole entry, looked up): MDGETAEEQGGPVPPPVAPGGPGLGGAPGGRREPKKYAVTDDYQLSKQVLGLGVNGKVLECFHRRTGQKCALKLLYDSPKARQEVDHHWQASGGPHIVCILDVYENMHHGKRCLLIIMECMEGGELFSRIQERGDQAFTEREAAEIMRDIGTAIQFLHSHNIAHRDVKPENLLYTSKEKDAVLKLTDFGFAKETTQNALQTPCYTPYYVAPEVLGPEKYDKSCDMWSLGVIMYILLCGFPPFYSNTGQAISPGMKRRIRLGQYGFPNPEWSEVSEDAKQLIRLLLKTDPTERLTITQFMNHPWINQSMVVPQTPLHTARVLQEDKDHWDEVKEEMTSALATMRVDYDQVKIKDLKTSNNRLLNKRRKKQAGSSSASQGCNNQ
Chain of MAPKAP-K2 (substrate of Table 1, construct not stated), P49137 (P49137 46-400): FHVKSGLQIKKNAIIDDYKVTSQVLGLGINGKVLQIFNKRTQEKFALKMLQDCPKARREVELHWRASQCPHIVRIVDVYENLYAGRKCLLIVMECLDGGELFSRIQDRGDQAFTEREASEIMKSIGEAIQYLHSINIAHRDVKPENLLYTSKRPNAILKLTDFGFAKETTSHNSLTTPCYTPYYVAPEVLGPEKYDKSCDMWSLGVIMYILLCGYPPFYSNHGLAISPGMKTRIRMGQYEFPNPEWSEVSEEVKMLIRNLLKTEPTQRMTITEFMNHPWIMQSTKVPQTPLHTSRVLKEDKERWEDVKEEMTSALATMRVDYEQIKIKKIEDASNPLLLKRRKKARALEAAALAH
Chain of GST-MAPKAP-K2(46-400), P49137 (P49137 46-400): as above

B1: rat GST-SAPK3 (protein)
chain: T6 chain
Turning to B1, the “phosphorylation sites on ATF2 (32P, mutants, phosphoamino acid analysis)” value in series [1] is “SAPK2 and SAPK3 phosphorylate ATF2 at Thr69 and Thr-71, and that only SAPK3 phosphorylates Ser-90”. The rate of phosphorylation of substrate (1 µM) relative to MBP (relative to MBP (=100)) in series [1] was found to be 107; in series [2], 181; in series [5], 108; in series [6] it was 20; in series [7], 2. In series [3], the “activation of MAPKAP-K2 (initial rate and half time for maximal activation)” value is recorded as 20 times slower. Further, the “activation of MAPKAP-K3 (initial rate and half time for maximal activation)” value in series [4] is recorded as 20 times slower. The rate of phosphorylation of substrate (1 µM) relative to MBP (% of rate with MBP) in series [4] worked out at 20; in [8] it was 25.

B2: human GST-SAPK2b (protein)
chain: MSGPRAGFYRQELNKTVWEVPQRLQGLRPVGSGAYGSVCSAYDARLRQKVAVKKLSRPFQSLIHARRTYRELRLLKHLKHENVIGLLDVFTPATSIEDFSEVYLVTTLMGADLNNIVKCQALSDEHVQFLVYQLLRGLKYIHSAGIIHRDLKPSNVAVNEDCELRILDFGLARQADEEMTGYVATRWYRAPEIMLNWMHYNQTVDIWSVGCIMAELLQGKALFPGSDYIDQLKRIMEVVGTPSPEVLAKISSEHARTYIQSLPPMPQKDLSSIFRGANPLAIDLLGRMLVLDSDQRVSAAEALAHAYFSQYHDPEDEPEAEPYDESVEAKERTLEEWKELTYQEVLSFKPPEPPKPPGSLEIEQ
B2: the rate of phosphorylation of substrate (1 µM) relative to MBP (% of rate with MBP) in series [1] turned out to be 62; in series [2], 136; in [4], 66; in series [5], 27; in [6] it was 18; in series [7] it was 7. This protein also came in with a rate of phosphorylation of substrate (1 µM) relative to MBP (% of rate with MBP) in series [8] of 83.

B3: MalE-Mpk2, the Xenopus homologue of SAPK2a (protein)
chain: T4 chain
With B3, the “phosphorylation sites on ATF2 (32P, mutants, phosphoamino acid analysis)” value in series [1] is “SAPK2 and SAPK3 phosphorylate ATF2 at Thr69 and Thr-71, and that only SAPK3 phosphorylates Ser-90”. The rate of phosphorylation of substrate (1 µM) relative to MBP (% of rate with MBP) in [1] turned out to be 40; in series [2], 90; in series [4] it was 87; in series [5], 25; in series [7], 4; in series [8], 90. Besides, the rate of phosphorylation of substrate (1 µM) relative to MBP (relative to MBP (=100)) in [1] stood at 86; in series [2], 122; in series [5], 55; in series [7], 2.

B4: human GST-SAPK4 (protein)
chain: T5 chain
In the case of B4, the rate of phosphorylation of substrate (1 µM) relative to MBP (% of rate with MBP) worked out at 175 in series [2]; 18 in [4]; 62 in series [5]; 8 in [6]; 6 in series [7]; 28 in series [8]. Moreover, the “activation of MAPKAP-K2 (initial rate and half-time for maximal activation)” value in [9] came to 20 times slower. In addition, the “activation of MAPKAP-K3 (initial rate and half-time for maximal activation)” value in series [4] stood at 20 times slower.

B5: SKK3 purified from rabbit skeletal muscle (protein)
chain: MSQSKGKKRNPGLKIPKEAFEQPQTSSTPPRDLDSKACISIGNQNFEVKADDLEPIMELGRGAYGVVEKMRHVPSGQIMAVKRIRATVNSQEQKRLLMDLDISMRTVDCPFTVTFYGALFREGDVWICMELMDTSLDKFYKQVIDKGQTIPEDILGKIAVSIVKALEHLHSKLSVIHRDVKPSNVLINTLGQVKMCDFGISGYLVDSVAKTIDAGCKPYMAPERINPELNQKGYSVKSDIWSLGITMIELAILRFPYDSWGTPFQQLKQVVEEPSPQLPADKFSAEFVDFTSQCLKKNSKERPTYPELMQHPFFTVHESKATDVASFVKLILGD
Take B5: the “32P phosphorylation, phosphoamino acid analysis” value in series [10] was “the inactive SAPK4 mutant could only be phosphorylated on tyrosine and not on threonine”. The “activation of SAPK2 (MBP kinase activity) in vitro” value in series [11] is “The rate of activation of SAPK3 by SKK3 was similar to that of SAPK2”. For the same protein, in series [12], the “activation of SAPK4 (MBP kinase activity) in vitro” value is listed as “SAPK4 was activated in vitro by a highly purified preparation of SKK3 from skeletal muscle”, the “phosphorylation stoichiometry at plateau” value is recorded as “reached a plateau at ˜1.6 mol/mol subunit” and the “rate of activation compared with SAPK2a” value was “occurred two- to three-fold more slowly than that of SAPK2a”. Besides, the “activation of SAPK3 (MBP kinase activity) in vitro” value in series [13] is recorded as “SAPK3 was activated in vitro by a highly purified preparation of SKK3 from skeletal muscle”.
